Source: paper PMC10891947, “Gene Expression of Ethanol and Acetate Metabolic Pathways in the Acinetobacter baumannii EmaSR Regulon” (Microorganisms, 2024)
“And” between values parts separate entries of the source, which are not always exact repeats. Equal values may be shown once.

Key:
[1] = substrate: CC(C)(COP(=O)(O)OP(=O)(O)OC[C@H]1O[C@@H](n2cnc3c(N)ncnc32)[C@H](O)[C@@H]1OP(=O)(O)O)[C@@H](O)C(=O)NCCC(=O)NCCSC(=O)CCC(=O)O; assay: purified protein; format: biochemical, Acinetobacter baumannii; conditions: pH 8.0 potassium phosphate buffer, co-substrate acetate, one experiment
[2] = substrate: CC(=O)O; assay: purified protein; conditions: pH 8.0 potassium phosphate buffer, co-substrate succinyl-CoA, one experiment

B1: DJ41_2796 (Acinetobacter baumannii ATCC 19606 = CIP 70.34 = JCM 6841) (protein)
chain: MSLSRIRLASLHDKVISAEQAAQFIENGMTVGMSGFTRAGEAKAVPQALVELAKKNPLKITLITGASLGNDLDKQLTEAGVLSRRMPFQVDNTLRRAINNGEVMFIDQHLSETVEQMRNQQLKRPDVAVIEAIAITEDGGIIPTTSVGNSASFAIFAEKVIVEINTSLSESFEGLHDIYIPTYRPTRTPIPLTKVDERIGTTAIQIDPSRIVGIVFNDTHDSPSTVTPPDDETQGIANHLIAFFEKEVAEGRLPKNLGPLQAGIGSIANAVLTGLKDSNFEDLIMYSEVLQDCTFELIDAGKMKFASGSSITLSAKCGEKVFGNIEAYKDKLVLRPQEISNHPELVRRLGIIGINTALEFDIYGNVNSTHVCGTKMMNGIGGSGDFARNAHLAIFVTKSIAKGGDISSIVPMVSHVDHSEHDVDILVTEQGLADLRGLAPRERARAIIDNCVHPLYRDALNDYFDRACAKGGHTPHLLREALSWHANFEETGQMLQPTPVAKSA
Km [1]: 0.3418 mM
Vmax [1]: 0.035 µmol/min
kcat [1]: 6.99 s⁻¹
kcat/Km [1]: 20500 M⁻¹ s⁻¹
Km [2]: 14.74 mM and 39 mM
Vmax [2]: 0.0335 µmol/min and 0.0415 µmol/min
kcat [2]: 6.7 s⁻¹ and 8.31 s⁻¹
kcat/Km [2]: 455 M⁻¹ s⁻¹ and 213 M⁻¹ s⁻¹
